Test results from PMC11315929, “A novel role for the peptidyl-prolyl cis-trans isomerase Cyclophilin A in DNA-repair following replication fork stalling via the MRE11-RAD50-NBS1 complex” (EMBO Reports, 2024).

Target: T1, recombinant human Strep-tagged CYPA (human, UniProt P62937 1-165)
T1 construct: Cyclophilin A (CYPA, PPIA), human; The methods also call such proteins Streptavidin-tagged; also called CYPA-Strep; source: E. coli BL21(DE3), purified (Strep-Tactin Superflow Plus cartridge, PD10 desalting)
T1 sequence (P62937 whole entry): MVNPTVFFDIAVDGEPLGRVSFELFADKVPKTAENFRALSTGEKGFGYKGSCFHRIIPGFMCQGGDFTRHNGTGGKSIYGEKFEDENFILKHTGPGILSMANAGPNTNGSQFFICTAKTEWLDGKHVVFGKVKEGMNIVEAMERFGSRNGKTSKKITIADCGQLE
Experiment: pull-down; recombinant Strep-tagged CYPA and HIS-tagged FHA-BRCT1 combined, 30 min 4 °C; MagStrep type3 XT beads 1 h 4 °C in 100 mM Tris-Cl pH 8, 150 mM NaCl, 1 mM EDTA, 0.5 mg/ml BSA; elution with 50 mM biotin; western blot; beads alone as control
Details: both partners purified

- binding result: binds
B1: recombinant HIS-tagged human NBS1 peptide composed of FHA-linker-BRCT1 (aa 1-182), wild type (domain or fragment, UniProt O60934 1-182, looked up)
chain: MWKLLPAAGPAGGEPYRLLTGVEYVVGRKNCAILIENDQSISRNHAVLTANFSVTNLSQTDEIPVLTLKDNSKYGTFVNEEKMQNGFSRTLKSGDGITFGVFGSKFRIEYEPLVACSSCLDVSGKTALNQAILQLGGFTVNNWTEECTHLVMVSVKVTIKTICALICGRPIVKPEYFTEFLK
notes: NBS1 (nibrin), human, UniProt O60934, FHA-linker-BRCT1, aa 1-182; also called WT HIS-tagged FHA-BRCT1; NBS1 FHA-BRCT1 peptide; source: E. coli BL21(DE3), purified (HiTrap TALON Crude, PD10 desalting)
